Patent publication US20200262877A1, “ION CHANNEL-BINDING PEPTIDES AND METHODS OF USE THEREOF” (priority 2017, published 2020)

Tests used:
[1] = target: T1, α3β4 (Homo sapiens, UniProt P30926+P32297); experiment: Ion channel panel (IonWorks Barracuda): α3β4; format: cell-based; conditions: 100% = no change, <100% = inhibition
T1 construct: host or cells: HEK293 or CHO
Outline: (§1)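 Transfected HEK293 or CHO cells were exposed for at least 5 min to peptides at 200 nM and 20 μM final, tested in duplicate, in HEPES-buffered physiological saline. Activation was taken as peptide-plus-agonist current over control current ×100, and inhibition as 1 minus that ratio ×100. Each channel's control was its own reference compound.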

[2] = tested on: GABA; experiment: Ion channel panel (IonWorks Barracuda): GABA; format: cell-based; conditions: 100% = no change, <100% = inhibition
Outline: as §1

[3] = target: hERG (Homo sapiens, UniProt Q12809); experiment: in vitro; conditions: 100% = no change, <100% = inhibition
Outline: as §1

[4] = target: Nav1.5 (Homo sapiens, UniProt Q14524); experiment: in vitro; conditions: 100% = no change; for Activity of Nav1.5 with peptide, expressed as a percentage of the reference compound: peptide at 0.2 μM; for Activity of Nav1.5 with peptide (percentage of the reference compound): peptide at 20 μM
Outline: as §1

[5] = target: T2, NR2A (Homo sapiens, UniProt Q12879); experiment: Ion channel panel (IonWorks Barracuda): NR2A; format: cell-based; conditions: 100% = no change, <100% = inhibition
T2 construct: host or cells: HEK293 or CHO
Outline: as §1

[6] = target: T3, TRPV1 (Homo sapiens, UniProt Q8NER1); experiment: Ion channel panel (IonWorks Barracuda): TRPV1; format: cell-based; conditions: 100% = no change, <100% = inhibition
T3 construct: host or cells: HEK293 or CHO
Outline: as §1

[7] = target: T4, Kv1.1 (Homo sapiens, UniProt Q09470); experiment: cell-based; format: cell-based; conditions: 100% = no change, <100% = inhibition
T4 construct: host or cells: HEK293 or CHO
Outline: as §1

[8] = target: T5, Kv1.3 (Homo sapiens, UniProt P22001); experiment: cell-based; format: cell-based; conditions: 100% = no change, <100% = inhibition
T5 construct: host or cells: HEK293 or CHO
Outline: as §1

[9] = target: T6, Kv1.2 (Homo sapiens, UniProt P16389); experiment: cell-based; format: cell-based; conditions: 100% = no change, <100% = inhibition
T6 construct: host or cells: HEK293 or CHO
Outline: as §1

[10] = target: T7, 5HT3a (Homo sapiens, UniProt P46098); experiment: Ion channel panel (IonWorks Barracuda): 5HT3a; format: cell-based
T7 construct: host or cells: HEK293 or CHO
T7 sequence (P46098 whole entry, looked up): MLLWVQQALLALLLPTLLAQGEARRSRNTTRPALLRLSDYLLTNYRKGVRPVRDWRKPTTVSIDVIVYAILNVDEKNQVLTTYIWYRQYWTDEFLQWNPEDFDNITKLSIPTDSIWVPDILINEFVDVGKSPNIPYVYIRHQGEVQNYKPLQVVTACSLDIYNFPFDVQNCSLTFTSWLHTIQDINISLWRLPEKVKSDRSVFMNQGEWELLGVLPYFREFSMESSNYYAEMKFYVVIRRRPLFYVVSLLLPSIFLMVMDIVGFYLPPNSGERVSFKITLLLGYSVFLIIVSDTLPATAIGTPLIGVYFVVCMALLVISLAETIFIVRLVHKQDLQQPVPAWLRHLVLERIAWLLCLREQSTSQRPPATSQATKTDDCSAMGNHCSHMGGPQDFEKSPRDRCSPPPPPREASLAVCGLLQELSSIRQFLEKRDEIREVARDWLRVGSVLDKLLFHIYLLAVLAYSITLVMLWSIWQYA
Outline: as §1

[11] = target: T8, NR2B (Homo sapiens, UniProt Q13224); experiment: Ion channel panel (IonWorks Barracuda): NR2B; format: cell-based; conditions: 100% = no change, <100% = inhibition
T8 construct: host or cells: HEK293 or CHO
Outline: as §1

[12] = target: T9, Kv2.1 (Homo sapiens, UniProt Q14721); experiment: cell-based; conditions: 100% = no change, <100% = inhibition
T9 construct: host or cells: HEK293 or CHO
Outline: as §1

[13] = target: T10, Cav2.2 (Homo sapiens, UniProt Q00975); experiment: cell-based; conditions: 100% = no change, <100% = inhibition
T10 construct: host or cells: HEK293 or CHO
Outline: as §1

[14] = target: T11, Cav2.1 (Homo sapiens, UniProt O00555); experiment: cell-based; conditions: 100% = no change, <100% = inhibition
T11 construct: host or cells: HEK293 or CHO
Outline: as §1

[15] = target: T12, Kir2.1 (Homo sapiens, UniProt P63252); experiment: Ion channel panel (IonWorks Barracuda): Kir2.1; format: cell-based; conditions: 100% = no change, <100% = inhibition
T12 construct: host or cells: HEK293 or CHO
Outline: as §1

[16] = target: T13, TRPA1 (Homo sapiens, UniProt O75762); experiment: Ion channel panel (IonWorks Barracuda): TRPA1; format: cell-based; conditions: 100% = no change, <100% = inhibition
T13 construct: host or cells: HEK293 or CHO
Outline: as §1

[17] = target: T14, Nav1.7 (Homo sapiens, UniProt Q15858); experiment: cell-based; format: cell-based; conditions: 100% = no change; for Activity of Nav1.7 with peptide, expressed as a percentage of the reference compound: peptide at 0.2 μM; for Activity of Nav1.7 with peptide (percentage of the reference compound): peptide at 20 μM
T14 construct: host or cells: HEK293 or CHO

[18] = target: T15, α4β2 (Homo sapiens, UniProt P17787+P43681); experiment: Ion channel panel (IonWorks Barracuda): α4β2; format: cell-based; conditions: 100% = no change, <100% = inhibition
T15 construct: host or cells: HEK293 or CHO
Outline: as §1

[19] = first of two Nav1.5 columns (probably TP1)
[20] = second of two Nav1.5 columns (probably TP2)
[21] = first of two Nav1.7 columns (probably TP1)
[22] = second of two Nav1.7 columns (probably TP2)

T14 sequence (Q15858 whole entry): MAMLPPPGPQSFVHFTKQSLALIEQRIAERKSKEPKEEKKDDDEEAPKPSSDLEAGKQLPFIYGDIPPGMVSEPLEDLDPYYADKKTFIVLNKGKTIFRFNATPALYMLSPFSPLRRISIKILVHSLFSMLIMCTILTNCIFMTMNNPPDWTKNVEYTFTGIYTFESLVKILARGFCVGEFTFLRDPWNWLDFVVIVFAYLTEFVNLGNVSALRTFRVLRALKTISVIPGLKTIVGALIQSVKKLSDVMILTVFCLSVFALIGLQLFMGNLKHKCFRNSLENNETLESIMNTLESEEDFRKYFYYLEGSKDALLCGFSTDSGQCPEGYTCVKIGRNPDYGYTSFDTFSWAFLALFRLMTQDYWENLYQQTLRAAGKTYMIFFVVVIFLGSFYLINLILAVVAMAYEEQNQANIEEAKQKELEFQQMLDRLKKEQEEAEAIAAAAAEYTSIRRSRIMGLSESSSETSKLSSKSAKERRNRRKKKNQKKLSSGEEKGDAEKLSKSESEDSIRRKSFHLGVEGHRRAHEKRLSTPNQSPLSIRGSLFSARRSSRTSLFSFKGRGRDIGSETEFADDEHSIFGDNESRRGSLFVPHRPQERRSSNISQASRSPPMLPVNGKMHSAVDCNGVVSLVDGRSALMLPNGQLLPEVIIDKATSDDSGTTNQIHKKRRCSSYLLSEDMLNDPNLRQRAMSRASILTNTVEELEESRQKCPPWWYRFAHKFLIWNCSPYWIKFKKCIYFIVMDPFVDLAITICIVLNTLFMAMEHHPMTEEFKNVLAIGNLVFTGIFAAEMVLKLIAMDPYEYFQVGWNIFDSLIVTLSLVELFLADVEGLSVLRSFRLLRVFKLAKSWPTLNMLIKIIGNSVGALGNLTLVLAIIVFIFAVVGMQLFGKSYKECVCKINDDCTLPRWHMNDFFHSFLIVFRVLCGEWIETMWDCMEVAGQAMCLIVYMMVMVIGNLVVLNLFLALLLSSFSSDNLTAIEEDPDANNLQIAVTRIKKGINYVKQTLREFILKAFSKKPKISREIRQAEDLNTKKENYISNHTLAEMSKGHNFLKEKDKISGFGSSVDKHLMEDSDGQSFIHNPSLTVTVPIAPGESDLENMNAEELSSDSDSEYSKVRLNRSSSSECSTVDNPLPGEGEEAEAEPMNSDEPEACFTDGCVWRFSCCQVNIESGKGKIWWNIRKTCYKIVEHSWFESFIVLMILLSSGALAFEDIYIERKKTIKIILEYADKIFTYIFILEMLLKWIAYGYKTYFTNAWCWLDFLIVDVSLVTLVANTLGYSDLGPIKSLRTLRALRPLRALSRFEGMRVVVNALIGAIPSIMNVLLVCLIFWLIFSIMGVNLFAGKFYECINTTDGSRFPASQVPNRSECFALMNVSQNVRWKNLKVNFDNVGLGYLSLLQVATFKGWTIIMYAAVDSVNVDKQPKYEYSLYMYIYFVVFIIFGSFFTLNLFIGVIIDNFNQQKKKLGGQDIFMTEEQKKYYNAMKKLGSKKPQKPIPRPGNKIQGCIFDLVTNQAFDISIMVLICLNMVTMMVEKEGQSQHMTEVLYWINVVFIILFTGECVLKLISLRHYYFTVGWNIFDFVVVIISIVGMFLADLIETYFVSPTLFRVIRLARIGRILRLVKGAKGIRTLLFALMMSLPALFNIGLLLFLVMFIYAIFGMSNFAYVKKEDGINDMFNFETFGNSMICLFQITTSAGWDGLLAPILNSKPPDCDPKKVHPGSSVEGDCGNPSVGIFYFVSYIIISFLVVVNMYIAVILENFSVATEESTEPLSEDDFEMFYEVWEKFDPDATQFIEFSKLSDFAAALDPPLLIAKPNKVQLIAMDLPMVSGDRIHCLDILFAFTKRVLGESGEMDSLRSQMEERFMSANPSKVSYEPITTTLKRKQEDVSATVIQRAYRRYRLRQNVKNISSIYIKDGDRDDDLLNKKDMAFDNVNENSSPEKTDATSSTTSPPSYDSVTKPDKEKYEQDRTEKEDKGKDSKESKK
Chain of Nav1.5 (Q14524 whole entry): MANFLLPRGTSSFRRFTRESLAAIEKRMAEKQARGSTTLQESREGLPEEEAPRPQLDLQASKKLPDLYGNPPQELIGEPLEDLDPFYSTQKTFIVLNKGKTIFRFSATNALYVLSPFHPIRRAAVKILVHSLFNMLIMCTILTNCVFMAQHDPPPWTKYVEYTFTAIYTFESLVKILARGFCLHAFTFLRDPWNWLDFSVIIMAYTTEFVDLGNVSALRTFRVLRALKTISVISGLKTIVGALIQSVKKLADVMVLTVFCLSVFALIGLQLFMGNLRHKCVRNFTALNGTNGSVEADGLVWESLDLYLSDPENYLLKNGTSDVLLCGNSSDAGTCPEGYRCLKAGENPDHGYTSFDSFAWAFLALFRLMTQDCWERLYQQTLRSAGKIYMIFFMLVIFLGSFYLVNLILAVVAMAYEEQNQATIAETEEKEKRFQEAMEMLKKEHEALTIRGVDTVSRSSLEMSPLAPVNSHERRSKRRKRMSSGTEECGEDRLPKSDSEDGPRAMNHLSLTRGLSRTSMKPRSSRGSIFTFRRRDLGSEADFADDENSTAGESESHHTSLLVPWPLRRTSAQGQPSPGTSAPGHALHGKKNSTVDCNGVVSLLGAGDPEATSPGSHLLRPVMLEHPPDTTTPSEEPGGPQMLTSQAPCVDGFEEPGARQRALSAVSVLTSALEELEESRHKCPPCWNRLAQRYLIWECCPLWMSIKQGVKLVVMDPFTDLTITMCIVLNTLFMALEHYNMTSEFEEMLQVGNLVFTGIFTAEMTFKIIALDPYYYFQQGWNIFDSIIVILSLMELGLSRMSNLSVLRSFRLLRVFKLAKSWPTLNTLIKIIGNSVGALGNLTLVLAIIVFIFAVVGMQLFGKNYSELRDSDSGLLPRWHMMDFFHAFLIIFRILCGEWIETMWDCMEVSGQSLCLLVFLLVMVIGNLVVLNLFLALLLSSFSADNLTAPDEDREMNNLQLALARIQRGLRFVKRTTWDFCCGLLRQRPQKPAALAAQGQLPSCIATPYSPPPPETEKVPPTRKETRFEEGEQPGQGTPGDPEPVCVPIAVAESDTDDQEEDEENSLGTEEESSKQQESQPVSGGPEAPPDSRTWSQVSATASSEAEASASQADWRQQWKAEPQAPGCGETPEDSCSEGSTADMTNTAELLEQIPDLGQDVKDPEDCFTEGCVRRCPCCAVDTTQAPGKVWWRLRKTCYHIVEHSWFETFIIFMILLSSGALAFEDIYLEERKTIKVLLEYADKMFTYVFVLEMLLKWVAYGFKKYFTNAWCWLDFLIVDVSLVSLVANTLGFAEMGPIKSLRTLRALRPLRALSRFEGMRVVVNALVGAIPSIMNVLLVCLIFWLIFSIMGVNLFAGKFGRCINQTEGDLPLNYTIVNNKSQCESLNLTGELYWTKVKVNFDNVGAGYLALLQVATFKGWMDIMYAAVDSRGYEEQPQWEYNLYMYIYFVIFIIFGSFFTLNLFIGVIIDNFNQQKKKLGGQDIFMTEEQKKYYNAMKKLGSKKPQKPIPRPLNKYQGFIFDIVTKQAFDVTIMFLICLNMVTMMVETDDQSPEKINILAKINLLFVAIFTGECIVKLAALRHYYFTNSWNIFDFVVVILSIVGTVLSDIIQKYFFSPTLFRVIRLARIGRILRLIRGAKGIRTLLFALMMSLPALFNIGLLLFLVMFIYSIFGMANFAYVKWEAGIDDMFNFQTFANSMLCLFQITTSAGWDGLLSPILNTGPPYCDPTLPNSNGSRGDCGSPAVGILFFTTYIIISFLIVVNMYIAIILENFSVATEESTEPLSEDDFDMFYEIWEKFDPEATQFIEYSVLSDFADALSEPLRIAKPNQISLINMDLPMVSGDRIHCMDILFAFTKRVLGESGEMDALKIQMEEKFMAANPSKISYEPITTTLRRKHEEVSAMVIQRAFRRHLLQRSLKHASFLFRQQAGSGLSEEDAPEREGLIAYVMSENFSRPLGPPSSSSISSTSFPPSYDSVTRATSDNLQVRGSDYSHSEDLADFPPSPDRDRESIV
Chain of hERG (Q12809 whole entry): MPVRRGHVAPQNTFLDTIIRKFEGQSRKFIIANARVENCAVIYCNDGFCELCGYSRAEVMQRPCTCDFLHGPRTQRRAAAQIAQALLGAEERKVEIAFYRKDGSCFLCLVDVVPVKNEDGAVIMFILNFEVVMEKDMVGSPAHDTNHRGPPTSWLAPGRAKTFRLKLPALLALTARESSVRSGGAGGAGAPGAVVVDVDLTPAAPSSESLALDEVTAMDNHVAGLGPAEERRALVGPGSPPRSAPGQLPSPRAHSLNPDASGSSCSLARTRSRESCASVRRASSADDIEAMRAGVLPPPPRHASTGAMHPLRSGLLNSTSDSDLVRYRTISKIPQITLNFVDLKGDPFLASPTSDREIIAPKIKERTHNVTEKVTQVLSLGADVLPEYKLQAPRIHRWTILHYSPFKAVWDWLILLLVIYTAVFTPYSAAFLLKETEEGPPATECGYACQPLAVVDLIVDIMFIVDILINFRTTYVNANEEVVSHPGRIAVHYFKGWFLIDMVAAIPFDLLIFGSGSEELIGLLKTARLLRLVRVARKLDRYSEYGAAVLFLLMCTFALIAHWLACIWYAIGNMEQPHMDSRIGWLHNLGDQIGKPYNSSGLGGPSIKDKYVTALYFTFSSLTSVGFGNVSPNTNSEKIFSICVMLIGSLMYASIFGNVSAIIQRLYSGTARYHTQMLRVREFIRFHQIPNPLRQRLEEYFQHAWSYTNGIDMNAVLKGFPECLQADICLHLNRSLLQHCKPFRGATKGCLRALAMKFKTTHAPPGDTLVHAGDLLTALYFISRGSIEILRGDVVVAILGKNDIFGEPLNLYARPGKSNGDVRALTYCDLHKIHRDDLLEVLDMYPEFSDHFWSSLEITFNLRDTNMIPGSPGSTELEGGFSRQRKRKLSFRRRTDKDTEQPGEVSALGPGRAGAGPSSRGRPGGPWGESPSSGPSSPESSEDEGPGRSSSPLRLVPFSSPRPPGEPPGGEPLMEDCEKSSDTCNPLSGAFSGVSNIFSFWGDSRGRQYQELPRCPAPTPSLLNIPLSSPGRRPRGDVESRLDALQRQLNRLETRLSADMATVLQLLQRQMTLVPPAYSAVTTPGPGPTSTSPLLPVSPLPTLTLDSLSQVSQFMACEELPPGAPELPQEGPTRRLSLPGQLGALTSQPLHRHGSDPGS

“11 (GSGDCLPHLKRCKENNDCCSKKCKRRGANPEKRCR) [compound 11]” was tested, and the “Activity of a3b4 with peptide, expressed as a percentage of the reference compound” value ([1]; peptide at 0.2 μM) was 95%, the “Activity of a3b4 with peptide (percentage of the reference compound)” value ([1]; peptide at 20 μM) was 96% and the “Activity of GABA with peptide, expressed as a percentage of the reference compound” value ([2]; peptide at 0.2 μM) was 96%. For the same substance, the “Activity of GABA with peptide (percentage of the reference compound)” value ([2]; peptide at 20 μM) was 105%, the “Activity of hERG with peptide, expressed as a percentage of the reference compound” value ([3]; peptide at 0.2 μM) was 97% and the “Activity of hERG with peptide (percentage of the reference compound)” value ([3]; peptide at 20 μM) was 99%. For the same substance, the “Activity of Nav1.5 with peptide, expressed as a percentage of the reference compound” value [4, 19] was 107%, the “Activity of Nav1.5 with peptide, expressed as a percentage of the reference compound” value [4, 20] was 107% and the “Activity of Nav1.5 with peptide (percentage of the reference compound)” value [4, 19] was 113%. For the same substance, the “Activity of Nav1.5 with peptide (percentage of the reference compound)” value [4, 20] was 118%, the “Activity of NR2A with peptide, expressed as a percentage of the reference compound” value ([5]; peptide at 0.2 μM) was 103% and the “Activity of NR2A with peptide (percentage of the reference compound)” value ([5]; peptide at 20 μM) was 106%. For the same substance, the “Activity of TRPV1 with peptide, expressed as a percentage of the reference compound” value ([6]; peptide at 0.2 μM) was 100%, the “Activity of TRPV1 with peptide (percentage of the reference compound)” value ([6]; peptide at 20 μM) was 100% and the “Activity of Kv1.1 with peptide, expressed as a percentage of the reference compound” value ([7]; peptide at 0.2 μM) was 99%. The “Activity of Kv1.1 with peptide (percentage of the reference compound)” value ([7]; peptide at 20 μM) was 55%, the “Activity of Kv1.3 with peptide, expressed as a percentage of the reference compound” value ([8]; peptide at 0.2 μM) was 101% and the “Activity of Kv1.3 with peptide (percentage of the reference compound)” value ([8]; peptide at 20 μM) was 87%. For the same substance, the “Activity of Kv1.2 with peptide, expressed as a percentage of the reference compound” value ([9]; peptide at 0.2 μM) was 103%, the “Activity of Kv1.2 with peptide (percentage of the reference compound)” value ([9]; peptide at 20 μM) was 46% and the “Activity of 5HT3a with peptide (percentage of the reference compound)” value [10] was 85%. For the same substance, the “Activity of 5HT3a with peptide, expressed as a percentage of the reference compound” value [10] was 73%, the “Activity of NR2B with peptide, expressed as a percentage of the reference compound” value ([11]; peptide at 0.2 μM) was 103% and the “Activity of NR2B with peptide (percentage of the reference compound)” value ([11]; peptide at 20 μM) was 78%. For the same substance, the “Activity of Kv2.1 with peptide, expressed as a percentage of the reference compound” value ([12]; peptide at 0.2 μM) was 121%, the “Activity of Kv2.1 with peptide (percentage of the reference compound)” value ([12]; peptide at 20 μM) was 110% and the “Activity of Cav2.2 with peptide, expressed as a percentage of the reference compound” value ([13]; peptide at 0.2 μM) was 100%. The “Activity of Cav2.2 with peptide (percentage of the reference compound)” value ([13]; peptide at 20 μM) was 103%, the “Activity of Cav2.1 with peptide, expressed as a percentage of the reference compound” value ([14]; peptide at 0.2 μM) was 104% and the “Activity of Cav2.1 with peptide (percentage of the reference compound)” value ([14]; peptide at 20 μM) was 110%. For the same substance, the “Activity of Kir2.1 with peptide, expressed as a percentage of the reference compound” value ([15]; peptide at 0.2 μM) was 107%, the “Activity of Kir2.1 with peptide (percentage of the reference compound)” value ([15]; peptide at 20 μM) was 97% and the “Activity of TRPA1 with peptide, expressed as a percentage of the reference compound” value ([16]; peptide at 0.2 μM) was 100%. The “Activity of TRPA1 with peptide (percentage of the reference compound)” value ([16]; peptide at 20 μM) was 109%, the “Activity of Nav1.7 with peptide, expressed as a percentage of the reference compound” value [17, 21] was 107% and the “Activity of Nav1.7 with peptide, expressed as a percentage of the reference compound” value [17, 22] was 107%. For the same substance, the “Activity of Nav1.7 with peptide (percentage of the reference compound)” value [17, 21] was 96%, the “Activity of Nav1.7 with peptide (percentage of the reference compound)” value [17, 22] was 87% and the “Activity of a4b2 with peptide, expressed as a percentage of the reference compound” value ([18]; peptide at 0.2 μM) was 111%. For the same substance, the “Activity of a4b2 with peptide (percentage of the reference compound)” value ([18]; peptide at 20 μM) was 88%.
